Experimental data published in PMC2898018.

Target: His-tagged WRN (E84A) (human) (UniProt Q14191)
UniProt Q14191, sequence (Q14191 whole entry E84A): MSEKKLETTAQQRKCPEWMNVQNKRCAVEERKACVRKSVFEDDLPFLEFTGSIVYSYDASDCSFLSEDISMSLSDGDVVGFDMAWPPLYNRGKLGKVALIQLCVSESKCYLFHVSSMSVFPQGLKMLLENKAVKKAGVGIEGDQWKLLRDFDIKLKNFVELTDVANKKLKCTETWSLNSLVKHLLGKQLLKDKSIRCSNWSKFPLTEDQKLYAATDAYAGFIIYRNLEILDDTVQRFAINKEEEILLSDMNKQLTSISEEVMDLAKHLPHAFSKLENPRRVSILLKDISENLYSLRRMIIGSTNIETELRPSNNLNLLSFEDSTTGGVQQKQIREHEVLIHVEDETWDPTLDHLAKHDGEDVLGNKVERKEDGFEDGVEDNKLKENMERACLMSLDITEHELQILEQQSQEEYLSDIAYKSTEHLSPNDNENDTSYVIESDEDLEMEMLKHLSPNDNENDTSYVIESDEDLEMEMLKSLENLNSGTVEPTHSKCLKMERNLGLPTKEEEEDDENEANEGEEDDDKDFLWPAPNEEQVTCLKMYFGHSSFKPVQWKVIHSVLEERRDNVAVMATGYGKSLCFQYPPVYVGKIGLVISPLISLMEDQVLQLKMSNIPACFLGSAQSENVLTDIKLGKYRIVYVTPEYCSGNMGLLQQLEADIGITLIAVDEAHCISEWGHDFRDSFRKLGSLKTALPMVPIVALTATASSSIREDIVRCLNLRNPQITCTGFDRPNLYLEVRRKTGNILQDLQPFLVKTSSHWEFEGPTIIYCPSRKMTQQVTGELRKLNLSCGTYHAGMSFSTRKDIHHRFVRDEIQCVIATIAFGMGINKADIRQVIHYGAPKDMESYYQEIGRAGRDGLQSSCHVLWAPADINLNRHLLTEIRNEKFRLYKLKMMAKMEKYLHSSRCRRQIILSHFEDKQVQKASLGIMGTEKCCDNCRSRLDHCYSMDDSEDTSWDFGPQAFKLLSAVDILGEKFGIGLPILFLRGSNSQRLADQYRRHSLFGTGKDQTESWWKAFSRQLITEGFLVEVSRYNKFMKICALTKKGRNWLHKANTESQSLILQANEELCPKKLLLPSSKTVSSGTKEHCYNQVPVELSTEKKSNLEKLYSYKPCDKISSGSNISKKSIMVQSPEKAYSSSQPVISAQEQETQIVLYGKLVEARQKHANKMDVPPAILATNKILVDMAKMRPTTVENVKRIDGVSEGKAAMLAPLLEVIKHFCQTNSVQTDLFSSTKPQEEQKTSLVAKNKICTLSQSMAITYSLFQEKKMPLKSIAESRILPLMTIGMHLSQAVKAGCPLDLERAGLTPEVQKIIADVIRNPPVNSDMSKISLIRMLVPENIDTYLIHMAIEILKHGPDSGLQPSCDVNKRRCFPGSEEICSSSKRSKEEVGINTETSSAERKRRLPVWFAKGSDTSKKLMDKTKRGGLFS

Question: How did the unwinding of the telomeric D-loop substrate by WRN (E84A) (3.3 nM) preincubated with DNA-PKcs (16.7 nM), native gel; 3.3% unwound in the absence of DNA-PKcs turn out when “DNA-PKcs, the catalytic subunit of DNA-PK (from UniProt P78527 1-4128) (enzyme)” was run?
Answer: The unwinding of the telomeric D-loop substrate by WRN (E84A) (3.3 nM) preincubated with DNA-PKcs (16.7 nM), native gel; 3.3% unwound in the absence of DNA-PKcs was 66%.
